The record followed here is patent publication WO2025026282A1 (dated 2025).

The target in one assay is human CD64 (human, UniProt P12314 16-292, limits assumed). Briefly: BLI (Octet), human CD64. (In general: Biolayer interferometry detects binding as a change in optical thickness at a sensor tip.)
The next assay addresses T1, human CD32 alpha (human, UniProt P12318 34-217, limits assumed).
T1 construct: also called FcgammaRII
T1 sequence (looked up): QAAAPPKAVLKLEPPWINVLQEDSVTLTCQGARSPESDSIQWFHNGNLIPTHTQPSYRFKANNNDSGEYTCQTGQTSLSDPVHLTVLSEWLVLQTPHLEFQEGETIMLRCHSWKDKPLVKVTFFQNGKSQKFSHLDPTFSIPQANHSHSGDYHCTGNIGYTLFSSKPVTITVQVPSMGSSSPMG
Nature of the assay: BLI (Octet), human CD32 alpha.

Sequence of human CD64 (P12314 16-292 limits assumed): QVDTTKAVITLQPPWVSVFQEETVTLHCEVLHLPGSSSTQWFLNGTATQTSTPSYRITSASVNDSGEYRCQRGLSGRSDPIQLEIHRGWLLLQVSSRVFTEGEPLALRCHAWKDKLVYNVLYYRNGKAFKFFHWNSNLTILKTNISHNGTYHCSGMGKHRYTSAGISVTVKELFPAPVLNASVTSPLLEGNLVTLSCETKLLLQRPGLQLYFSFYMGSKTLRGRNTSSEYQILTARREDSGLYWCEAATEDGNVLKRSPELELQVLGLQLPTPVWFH

B1: 12A39 (2:1:1 asymmetric tri-specific antibody, Type E structure, CEA x CD3 x PD-L1) (other)
chain 1: QAVVTQEPSLTVSPGGTVTLTCRSSTGAVTTSNYANWVQQKPGQAPRGLIGGTNKRAPWTPARFSGSLLGGKAALTLSGAQAEDEADYYCALWYSNLWVFGGGTKLTVLRTVAAQVQLVQSGAEVKKPGSSVKVSCKTSGDTFSSYAISWVRDAPGQCLEWMGGIIPIFGKAHYAQKFQGRVTITADESTSTAYMELSSLRSEDTAVYFCARKFHFVSGSPFGMDVWGQGTTVTVSSASEPKSSDKTHTCPPCPAPPVAGPSVFLFPPKPKDTLMISRTPEVTCVVVDVSQEDPEVKFNWYVDGVEVHNAKTKPREEQFNSTYRVVSVLTVLHQDWLNGKEYKCKVSNKGLPSSIEKTISKAKGQPREPQVYTLPPSRDELTKNQVSLWCLVKGFYPSDIAVEWESNGQPENNYKTTPPVLDSDGSFFLYSKLTVDKSRWQQGNVFSCSVMHEALHNHYTQKSLSLSP
chain 2: EVQLVESGGGLVQPGGSLRLSCAASGFTFTDYYMNWVRQAPGKALEWLGFIRNKVNGDTTEYAASVKGRFTISRDDSKNSLYLQMNSLKTEDTAVYYCARDKGIAYYFDYWGQGTLVTVSSASTKGPSVFPLAPSSKSTSGGTAALGCLVKDYFPEPVTVSWNSGALTSGVHTFPAVLQSSGLYSLSSVVTVPSSSLGTQTYICNVNHKPSNTKVDKKVEPKSCDGGGGSGGGGSEIVLTQSPATLSLSPGERATLSCRASQSVSSYLAWYQKKPGQAPRLLIYDASNRATGIPARFSGSGSGTDFTLTISSLEPEDFAVYYCQQRSNWPTFGCGTKVEIKRTVAAEVQLVESGGGLVQPGGSLRLSCAASGFTFSTYAMNWVRQAPGKGLEWVGRIRSKYNNYATYYADSVKGRFTISRDDSKNSLYLQMNSLRAEDTAVYYCVRHGNFGTSYVSWFAYWGQGTLVTVSS
heavy: EVQLVESGGGLVQPGGSLRLSCAASGFTFTDYYMNWVRQAPGKALEWLGFIRNKVNGDTTEYAASVKGRFTISRDDSKNSLYLQMNSLKTEDTAVYYCARDKGIAYYFDYWGQGTLVTVSSASTKGPSVFPLAPSSKSTSGGTAALGCLVKDYFPEPVTVSWNSGALTSGVHTFPAVLQSSGLYSLSSVVTVPSSSLGTQTYICNVNHKPSNTKVDKKVEPKSCDKTHTCPPCPAPPVAGPSVFLFPPKPKDTLMISRTPEVTCVVVDVSQEDPEVKFNWYVDGVEVHNAKTKPREEQFNSTYRVVSVLTVLHQDWLNGKEYKCKVSNKGLPSSIEKTISKAKGQPREPQVYTLPPSRDELTKNQVSLSCAVKGFYPSDIAVEWESNGQPENNYKTTPPVLDSDGSFFLVSKLTVDKSRWQQGNVFSCSVMHEALHNRFTQKSLSLSP
light: EIVLTQSPATLSASPGERATLSCRASQSVSYIHWYQQKPGQSPRPWIHGTSNLATGVPARFSGSGSGTDFTLTISSLEPEDAAVYYCQQWSSNLSTFGGGTKVEIKRTVAAPSVFIFPPSDEQLKSGTASVVCLLNNFYPREAKVQWKVDNALQSGNSQESVTEQDSKDSTYSLSSTLTLSKADYEKHKVYACEVTHQGLSSPVTKSFNRGEC
notes: Tri-specific antibody; also called polypeptide complex 12A39
As for B1, in the assay with human CD64, the binding result is reported as “binds”. In addition, in the assay with human CD32 alpha, the Kd – broadly, a measure of binding affinity in units of concentration – was around 527 nM.
